CN109721655A (ZONHON BIOPHARMA INST INC, dated 2019)

T1: 重组人肌红蛋白 (recombinant human myoglobin, expressed in E. coli, made in-house) (human, UniProt P02144 2-154)
T1 construct: also called 人MYO; 重组人MYO
T1 sequence (looked up): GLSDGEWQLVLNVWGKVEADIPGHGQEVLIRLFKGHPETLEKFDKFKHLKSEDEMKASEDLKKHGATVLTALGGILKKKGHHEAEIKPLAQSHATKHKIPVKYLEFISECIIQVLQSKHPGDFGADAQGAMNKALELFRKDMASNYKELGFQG

B1: 杂交瘤细胞株M08的抗体 (mouse monoclonal antibody from hybridoma M08) (antibody, V domains shown)
VH: QVQLQQSGAELAKPGASVKMSCKASGYTFTSYWMHWVKQRPGQGLEWIGYIKPNTDYTEYNQKFKDKATLTADKSSSTAYMQLSSLTSEDSAVYYCTRIRGYALDYWGQGTSVTVSS
VL: DIVMTQSPSSLTVTAGEKVTMICKSSQSLLNSGNQKNYLTWYQQKPGQPPKLLIYWASTRESGVPDRFTGSGSGTDFTLTISSVQAEDLAVYYCQNDYNFPLTFGAGTKLELK
notes: Tested as hybridoma culture supernatant; Mouse IgG, detected with HRP goat anti-mouse IgG
B2: 杂交瘤细胞株M26的抗体 (mouse monoclonal antibody from hybridoma M26) (antibody, V domains shown)
VH: QVQLQQSGDDLVKPGASVKLSCKASGYTFTSYWINWIKQRPGQGLEWIGRIAPEGDSTYYNEMFKGKATLTVDTSSSTAYIQLSSLSSEDSAVYFCAREVRNAMDYWGQGTSVTVSS
VL: DIQMNQSPSSLSASLGDTITITCHASQNIHVWLSWYLQKPGNITKLLIYEASNLHTGVPSRFSGSGSGTGFTLTISSLQPEDIATYYCQQGQRYPLTFGGGTKLEIK
notes: as for B1
B3: 单链抗体M08 (anti-human myoglobin scFv M08, His-tagged, expressed in E. coli) (scFv)
scFv: QVQLQQSGAELAKPGASVKMSCKASGYTFTSYWMHWVKQRPGQGLEWIGYIKPNTDYTEYNQKFKDKATLTADKSSSTAYMQLSSLTSEDSAVYYCTRIRGYALDYWGQGTSVTVSSGGGGSGGGGSGGGGSDIVMTQSPSSLTVTAGEKVTMICKSSQSLLNSGNQKNYLTWYQQKPGQPPKLLIYWASTRESGVPDRFTGSGSGTDFTLTISSVQAEDLAVYYCQNDYNFPLTFGAGTKLELK
notes: Purified on HisTrap HP; HRP-labelled for the Western blot; Coupled to time-resolved fluorescent microspheres in the test card; also called M08抗体; M08-scFv; not shown: histidine tag added downstream of the scFv gene
B4: 单链抗体M26 (anti-human myoglobin scFv M26, His-tagged, expressed in E. coli) (scFv)
scFv: QVQLQQSGDDLVKPGASVKLSCKASGYTFTSYWINWIKQRPGQGLEWIGRIAPEGDSTYYNEMFKGKATLTVDTSSSTAYIQLSSLSSEDSAVYFCAREVRNAMDYWGQGTSVTVSSGGGGSGGGGSGGGGSDIQMNQSPSSLSASLGDTITITCHASQNIHVWLSWYLQKPGNITKLLIYEASNLHTGVPSRFSGSGSGTGFTLTISSLQPEDIATYYCQQGQRYPLTFGGGTKLEIK
notes: Purified on HisTrap HP; HRP-labelled for the Western blot; Coated on the T line of the nitrocellulose membrane in the test card; also called M26抗体; M26-scFv; not shown: histidine tag added downstream of the scFv gene

Key:
[1] = molecular target: T1, 重组人肌红蛋白 (recombinant human myoglobin, …); assay: indirect ELISA, hybridoma supernatant on plates coated with recombinant human MYO at 1 μg/mL, HRP goat anti-mouse IgG
[2] = molecular target: T1, 重组人肌红蛋白 (recombinant human myoglobin, …); assay: Western blot of recombinant MYO with HRP-labelled M08 (1:1000)
[3] = molecular target: T1, 重组人肌红蛋白 (recombinant human myoglobin, …); assay: Western blot of recombinant MYO with HRP-labelled M26 (1:1000)

Row | Binder | binding result [1] | further results
1 | B1 | binds | 
2 | B2 | binds | 
3 | B3 |  | binding result [2]: binds
4 | B4 |  | binding result [3]: binds
